Measured values from patent US20140004580A1, “MODIFIED PHOTOSYNTHETIC MICROORGANISMS FOR PRODUCING LIPIDS” (Matrix Genetics, LLC, priority 2010, published 2014).

Key:
Assay type in all cases: biochemical, Synechococcus elongatus PCC7942
purified h6-orf0489 = test: orf0489 aldehyde dehydrogenase activity assay with nonyl-aldehyde (NAD(P)H production at 340 nm); details: nonyl-aldehyde 1 mM; h6-orf0489 0.3, 1.5 or 6 μM; NAD+ or NAD(P)+ 1 mM; 30 minutes
Procedure: The reaction was started by mixing together a fatty aldehyde substrate, purified h6-orf0489 and NAD(P)+. The progress of the reaction was assessed by measuring the production of NAD(P)H at 340 nm using the SpectraMax M5. […] Nonyl-aldehyde and either NAD+ or NAD(P)+ were used at 1 mM. Measurements were taken every 30 seconds for 30 minutes.
To directly test whether orf0489 is an aldehyde dehydrogenase, a histidine-tagged version of this protein (h6-orf0489) was overexpressed in E. coli and purified using metal affinity chromatography. The purified protein was then employed in an in vitro reaction using a fatty aldehyde as a substrate.
The reaction was started by mixing together a fatty aldehyde substrate (nonyl-aldehyde at 1 mM), various concentrations of purified h6-orf0489 (0.3, 1.5 or 6 μM final concentration), and NAD+ or NAD(P)+ at 1 mM. The progress of the reaction was assessed by measuring the production of NAD(P)H at 340 nm using the SpectraMax M5; measurements were taken every 30 seconds for 30 minutes.

[1] = target: h6-0489 (histidine-tagged orf0489 aldehyde dehydrogenase) (Synechococcus elongatus, UniProt Q31QZ8); test: Enzymatic characterization of h6-0489 with fatty aldehydes of varying chain length (NADH production at 340 nm)
Procedure: (§1) The protein eluted off of SEC as a single monodisperse peak. The enzymatic characteristics of purified protein were then measured in vitro using fatty aldehydes of varying chain length (4-16) as substrate. In this assay, h6-0489 was incubated with 150 mM NaCl, 50 mM Tris, pH 7.5, 0.05% IGEPAL, 1 mM NAD+ and varying concentrations of the fatty aldehyde substrate being tested. The reaction was carried out in a cuvette with a 1 cm pathlength, and the progress was assessed by measuring the production of NADH at 340 nm using a SpectraMax M5 spectrophotometer. Measurements were taken every second for 2-5 minutes, and the initial velocities of each reaction were determined in the linear range. The A340 was converted into amount of NADH formed using the molar extinction coefficient for NADH (6200 M^−1 cm^−1). The Michaelis constants Km and Vmax were determined by fitting the data using non-linear progression in Prism to the equation Y=(Vmax*X)/(Km+X), where X=substrate concentration and Y=velocity. Kcat was determined from the equation Vmax=Kcat*Et, where Et=the concentration of h6-0489. Data are presented in Table C as averages of at least three different experiments, with errors presented as standard deviation.

[2] = substrate: CCCCCC=O; test: as above; details: other: aldehyde as substrate, 1 mM NAD+, pH 7.5, average of at least three experiments
Procedure: as §1

[3] = substrate: CCCCCCCC=O; test: as above; details: other: aldehyde as substrate, 1 mM NAD+, pH 7.5, average of at least three experiments
Procedure: as §1

[4] = substrate: CCCC=O; test: as above; details: other: aldehyde as substrate, 1 mM NAD+, pH 7.5, average of at least three experiments
Procedure: as §1

[5] = substrate: CCCCCCCCCCCC=O; test: as above; details: other: aldehyde as substrate, 1 mM NAD+, pH 7.5, average of at least three experiments
Procedure: as §1

[6] = substrate: CCCCCCCCCC=O; test: as above; details: other: aldehyde as substrate, 1 mM NAD+, pH 7.5, average of at least three experiments
Procedure: as §1

With `CCCCCCCCC=O` [nonyl-aldehyde] the “utilization as substrate (increased NAD(P)H production relative to controls)” value (purified h6-orf0489) was “utilizes nonyl-aldehyde as a substrate”.

In the case of hexadecenal, the “kcat (AVE)” value ([1]; aldehyde as substrate, 1 mM NAD+, 150 mM NaCl, 50 mM Tris pH 7.5, 0.05% IGEPAL, average of at least three experiments) is reported as 10.8 s⁻¹, the Km ([1]; aldehyde as substrate, 1 mM NAD+, pH 7.5, average of at least three experiments, read-out: (μM) (AVE) [Km]) is reported as 38.1 µM and the “oxidation of the aldehyde to a free fatty acid by h6-0489 in vitro” value ([1]; in vitro) is reported as “able to oxidize hexadecenal to a free fatty acid”.

B1: h6-0489 (histidine-tagged orf0489 aldehyde dehydrogenase) (Synechococcus elongatus PCC 7942 = FACHB-805) (protein)
chain: MTAVVLPAAAETLAALQATFDRGDTRTLAFRLARLQDLAKLVADNEAELLQALASDLRKPALEAYASEIYFVRDQIKLTCKHLRRWMQPEKQSISLMQQPGQAYRQAEPLGVVLIIGPWNYPFQLLITPLIGAIAAGNCAVLKPSELAPATSSLIQRLISDRFDPDYIRVLEGDASVSQALITQPFDHIFFTGGTAIGRKVMAAAAENLTPVTLELGGKSPCIVDTDIDLDVAARRIAWGKFFNAGQTCIAPDYLLVQRTVAEPFIEALIDNIQQFYGEDPQQSADYARIVSDRHWQRLNSLLVDGTIRHGGQVDRSDRYIAPTLITDVNWRDPILQEEIFGPLLPILIYDQLDEAIAQIRAQPKPLALYLFSRDRQVQERVLAETSAGSVCLNDTILQVGVPDAAFGGVGPSGMGGYHGKASFETFSHYKLVLKRPFWLDLALRYPPYGDKINLFRKL
Work on B1 yielded a Km [2] of 19.3 µM, a kcat [2] of 8.51 s⁻¹ and a kcat/Km [2] of 442000 M⁻¹ s⁻¹. The Km [3] was 15.4 µM, the kcat [3] was 13.5 s⁻¹ and the kcat/Km [3] was 875000 M⁻¹ s⁻¹. It also gave a Km [4] of 189.4 µM, a kcat [4] of 7.65 s⁻¹ and a kcat/Km [4] of 40000 M⁻¹ s⁻¹. The Km [5] was 11.4 µM, the kcat [5] was 9.29 s⁻¹ and the kcat/Km [5] was 818000 M⁻¹ s⁻¹. For the same molecule, the Km [6] was 7.6 µM, the kcat [6] was 12.1 s⁻¹ and the kcat/Km [6] was 1.59e+06 M⁻¹ s⁻¹.
